± gives the uncertainty stated by the source.
Assay: protein stability index of a GFP-peptide fusion (yeast GPS) (PSI 1-4); higher = more stable; sorted into four equal gates, so the index is relative within each strain
Details: ubr1∆
Summary of the method: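 Tiled 17-residue yeast protein peptides were fused downstream of GFP in a plasmid that also expresses Cherry, and the pooled library was carried in yeast. Mid-log cultures in leucine-free medium were sorted into four equal gates by GFP/Cherry fluorescence ratio, and plasmids from each gate were PCR-amplified and Illumina-sequenced, with reads assigned to strains by barcodes. The protein stability index for each peptide was each gate's read frequency times its gate number, summed.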
VVDTEETATLIMNELYR [SMC3] showed a protein stability index of 3.03 ± 0.096.
VVETITSLLNKVLKSGS [RRP42] gave a protein stability index of 2.45 ± 0.051.
Sequence VVFAVEKLITSKLLVPQ [PRE10] has a protein stability index of 2.66 ± 0.05.
With VVFDSNEAPPKTSLADW [YMR153W/NUP53] the protein stability index was 3.33 ± 0.096.
Work on VVIAADTRSTQGPIVAD [PUP1] yielded a protein stability index of 3 ± 0.072.
VVKGLPDISRAVINIRD [RPO31] gave a protein stability index of 2.47 ± 0.083.
In the case of VVNQPTGKIVDVVGTLS [FAS1], the protein stability index is reported as 3.11 ± 0.061.
Work on VVSTTAVIESVVNQPTG [FAS1] yielded a protein stability index of 2.1 ± 0.079.
VVTRSKEAFEEEIKQSA [SMC1] showed a protein stability index of 3.1 ± 0.089.
Work on VVYHPSNNELVRTNTLT [RPS8A] yielded a protein stability index of 2.647 ± 0.014.
For VYKIYNHVMPLKPVDKL [SIN4], the protein stability index was 1.62 ± 0.051.
For WAVKEGPLAEEPIYGVQ [SNU114], the protein stability index was 1.8 ± 0.047.
Sequence WELYTDFNEIVQYLSGA [POP3] has a protein stability index of 2.43 ± 0.075.
In the case of WIKFLLHTLYLRPASAI [SSN8], the protein stability index is reported as 1.15 ± 0.038.
WKATYSNEFKCMSVITA [YGL100W/SEH1] showed a protein stability index of 2.07 ± 0.032.
For WKTAEEVSALVRSLPKE [PRP8], the protein stability index was 1.08 ± 0.051.
Work on WLEQFLSCVKNDTISED [NUT1] yielded a protein stability index of 1.54 ± 0.035.
For WLKEYEDETLRRIKEAE [YIL149C/MLP2], the protein stability index was 3.44 ± 0.11.
Sequence WLWPLCRGELKADIGKP [CDC53] has a protein stability index of 2.43 ± 0.09.
WPKTRGVAMNPVDHPHG [RPL2A] gave a protein stability index of 2.55 ± 0.066.
WQQVTALAQQKLLTPQD [GAL11] showed a protein stability index of 2.45 ± 0.06.
For WQSGLKMYDYEEKEESN [RPN11], the protein stability index was 3 ± 0.16.
For WRFHTPQKYVLHPQLHE [SIN4], the protein stability index was 1.97 ± 0.057.
In the case of WSFYNGNVLINDTLPDE [SNU114], the protein stability index is reported as 1.7 ± 0.16.
WSHNGPFETFDHASIRR [CYT1] showed a protein stability index of 2.96 ± 0.043.
Sequence WYLILSIISSKTSCVVE [RGR1] has a protein stability index of 1.18 ± 0.1.
With YAIKKKDELERVAKSNR [RPS5] the protein stability index was 3.23 ± 0.068.
With YAKFKRNTMMIQCQIDK [RGR1] the protein stability index was 2.34 ± 0.033.
YASYFPYLLETYANVLI [RPN7] showed a protein stability index of 1.08 ± 0.043.
For YATKRQEAIQQNRRLAF [PRP8], the protein stability index was 2.61 ± 0.067.
In the case of YATQVKTDNTVDKFDFY [RPT3], the protein stability index is reported as 2.62 ± 0.042.
YCDPNTQEIRPVNTGVL [RRP40] gave a protein stability index of 2.76 ± 0.069.
YDIDEIDHSDESNRQSV [ESC2] showed a protein stability index of 3.84 ± 0.25.
Work on YDRHQSSSKQQSRLFIN [SMC4] yielded a protein stability index of 3.31 ± 0.2.
Sequence YDRNSNNNHKDKKLLRR [SWI1] has a protein stability index of 3.23 ± 0.041.
For YEAYPNTSLPPSILEDS [FAS1], the protein stability index was 2.4 ± 0.027.
YEKAQKDLENAQVEMKS [SMC1] showed a protein stability index of 3.3 ± 0.08.
Work on YFGENSSISWKNIAQCL [YJL039C/NUP192] yielded a protein stability index of 2.11 ± 0.062.
In the case of YFKMFPASKHDKEVVYF [RPC34], the protein stability index is reported as 3.4 ± 0.19.
YFYDLDVLKDGENNINF [BRN1] gave a protein stability index of 3.29 ± 0.11.
Work on YGLIRGLKFASFIFQYY [PRP8] yielded a protein stability index of 2.36 ± 0.085.
Work on YHLTKAVKLGDLKKFTS [RPN3] yielded a protein stability index of 1.78 ± 0.052.
For YIFFGPIYYQKLKHMVL [RET1], the protein stability index was 1.39 ± 0.062.
YIHRIGRTGRAANEGTA [PRP28] showed a protein stability index of 3.29 ± 0.071.
Work on YIRVNHADKDTFSSSIS [POP8] yielded a protein stability index of 2.18 ± 0.037.
With YISAELYAQLRENGLVP [SNU114] the protein stability index was 2.73 ± 0.058.
YKRQKSSLLYTYDENDD [ESC2] showed a protein stability index of 1.21 ± 0.06.
For YKYKMRYVYAHFPINVN [RPL9A], the protein stability index was 2.51 ± 0.041.
Sequence YLDADVAKLANWFLEVY [YML031W/NDC1] has a protein stability index of 2.79 ± 0.077.
For YLEDIIGTANYKPLIEE [SMC4], the protein stability index was 3.23 ± 0.076.
For YLHDNASKVLLKIFLYL [IRR1], the protein stability index was 1.77 ± 0.053.
Work on YLIDHIKVDGAVGNLGN [RPL22B] yielded a protein stability index of 2.61 ± 0.24.
In the case of YLKVSEEEIKKFDSRIR [PRP8], the protein stability index is reported as 3.15 ± 0.061.
With YLVEAPWNDDYPFLLSF [YML103C/NUP188] the protein stability index was 1.61 ± 0.072.
YMFANLEFSIYHRLSNK [CSN12] gave a protein stability index of 2.25 ± 0.082.
YMLIEEAASSNKSFIVD [ITC1] showed a protein stability index of 2.9 ± 0.049.
Sequence YMRLWEINETEFIRCGC [RMP1] has a protein stability index of 3.33 ± 0.049.
YNHNDGGDGRDYKGAKL [RRI1] gave a protein stability index of 2.96 ± 0.092.
With YNIELPLPPRIDPSVTM [RPT1] the protein stability index was 1.95 ± 0.083.
With YNLRSLNLINAKLWFYI [RPN3] the protein stability index was 1.48 ± 0.054.
YNNNTIRKLLEKINRMI [CSI1] showed a protein stability index of 3.1 ± 0.19.
Work on YNNRKCWPKDSRMRLIR [PRP8] yielded a protein stability index of 2.64 ± 0.14.
Work on YNRHKLQELIVNGPNVH [RPO31] yielded a protein stability index of 1.22 ± 0.095.
Work on YNRYRDLMISCLMNQET [MTR3] yielded a protein stability index of 2.5 ± 0.062.
For YPEDKKTQQNEKSENGE [RPN3], the protein stability index was 3.13 ± 0.12.
YPVYTRLRTLCRDSDDH [DIS3] showed a protein stability index of 2.95 ± 0.046.
YQLNGVAPFMIKYEFNG [YMR129W/POM152] gave a protein stability index of 2.73 ± 0.057.
Work on YQSPTIFKIVQSRLMST [MED6] yielded a protein stability index of 1.96 ± 0.094.
Sequence YQSSVQEPFLNSSNYAE [PRP8] has a protein stability index of 2.9 ± 0.043.
Sequence YRNNEPAGFTHKLSNWL [YDL088C/ASM4] has a protein stability index of 2.82 ± 0.039.
YSDENDPSISNNIRQAI [RRP4] gave a protein stability index of 2.47 ± 0.061.
Sequence YSENGKHDSLRYRLLSD [RPN1] has a protein stability index of 2.49 ± 0.1.
For YSIEMKPYSGKLLKVCL [ECM29], the protein stability index was 2.83 ± 0.069.
For YSLEAIKLGSTAIGIAT [PUP2], the protein stability index was 1.32 ± 0.069.
With YTDELEEDVYLDPLARV [FAS2] the protein stability index was 3.44 ± 0.053.
Sequence YTYHSTNKDNKAELIKP [ARP9] has a protein stability index of 2.98 ± 0.063.
In the case of YTYSSTLSHLRRTNTPI [RPB2], the protein stability index is reported as 2.17 ± 0.033.
With YVAPTKKEYIELDILNK [SRB4] the protein stability index was 2.75 ± 0.2.
Work on YVEAQHKLVFVVRIKGI [RPL7A] yielded a protein stability index of 1.21 ± 0.053.
In the case of YVLSTAVEFESVPLRKG [BRR2], the protein stability index is reported as 1.34 ± 0.036.
YVSDSDDSSSDNDSLTD [SIR4] showed a protein stability index of 2.63 ± 0.047.
Work on YYEQFRPDLIKEDHPLE [SIR3] yielded a protein stability index of 2.67 ± 0.046.

Reference: the supplement of paper PMC9732359
